Tests used:
[1] = system: utriculi of Rhino mouse skin; experiment: Rhino mouse utriculus size reduction (whole mount epidermis image analysis); type: in vivo; details: for Utriculus Size Reduction (%) vs. Liposome Control: topical once daily for five days, sacrificed day 8
Text: The Rhino mouse has been used as an experimental acne model to screen topically active comedolytic and antikeratinizing agents as described in Sundberg, J. P., “The Hairless and Rhino Mutations, Chromosome 14,” Handbook of Mouse Mutations With Skin and Hair Abnormalities 291-312 (1994), which is incorporated herein by reference in its entirety. A recessive mutation on chromosome 14 results in a mouse with wrinkled skin devoid of body hair by age 25 days. At that time, the end of the first hair cycle, the follicular papillae fail to follow the regressing hair follicles and become isolated in the dermis. […] The upper remnants of the hair follicle are filled with sloughed, cornified cells and form utriculi with a small sebaceous gland at their base, resembling an open comedone. The rhino skin becomes progressively loose, forming folds and ridges, due to the expansion of the surface, secondary to abortive hair follicles filling with cornified debris. The utriculi progressively enlarge, forming pilary cists (pseudocomedones), which are dilated follicular infundibula filled with cornified debris.
RHJ/LE Hairless (“Rhino”) male mice, 5-7 weeks of age, were obtained from Jackson Laboratories (Bar Harbor, Me.), and treated as described in Mezick et al., “Topical and Systemic Effects of Retinoids on Horn-Filled Utriculus Size in the Rhino Mouse: A Model to Quantify “Antikeratinizing” Effects of Retinoids,” 83 J. Invest. Dermatol. 110-113 (1984) (“Mezick”), which is incorporated herein by reference in its entirety.
Rhino mice of Example 1 were topically treated with the trypsin compositions (0.001% (w/v)-1% (w/v)) of Example 2 once daily for five days. Animals were sacrificed at day 8 and image analysis was used to quantify the reduction in utriculi size. For image analysis, whole mount epidermis was processed and microscopic measurements were taken according to the methods described in Mezick as well as Bernerd et al., “The Rhino Mouse Model: The Effects of Topically Applied All-Trans Retinoic Acid and CD271 on the Fine Structure of the Epidermis and Urticuli Wall of Pseudocomedones,” 283(2) Arch. Dermatol. Res. 100-107 (1991) and Bouclier et al., “Quantification of Epidermal Histological Changes Induced by Topical Retinoids and CD271 in the Rhino Mouse Model Using a Standardizing Image Analysis Technique,” 4(2) Skin Pharmacol. 65-73 (1991) which are each incorporated herein by reference in their entirety. Empire Imagins Database version 1.1 was used on a Gateway 2000 P5-100 computer for capturing images. Image Pro Plus version 1.3 was used for measurements and Microsoft Excel version 5.0 for data processing. The mean utriculus diameter (μ) and the mean sebaceous gland size (μ^2) were calculated for each treatment group (3 Rhino mice), using 5 random fields, two measurements per field, per animal. Percent reduction in utriculi diameter was calculated in accordance with the methods described in Finley, D. J., “Parallel Line Assays, Statistical Method in Biological Assay,” Charles Griffen & Company Ltd. 69-104 (1978) which is incorporated herein by reference in its entirety.

[2] = system: hamster ear sebaceous gland; experiment: Hamster ear model, sebaceous gland size; type: in vivo, golden Syrian hamsters
Procedure: The possible effect of trypsin on the sebaceous component of acne was evaluated using the hamster ear model system. Young golden Syrian hamsters, 45-55 grams upon arrival, were purchased from Charles River Laboratories (Wilmington, Mass.). The ventral side of the hamsters' right ears were treated daily with 10 μl of the trypsin composition of Example 2, five days a week for three weeks, while the left ears were used as untreated controls.

Rhino mouse skin [3] = experiment: Delivery of fluorescently labeled trypsin into hair follicles (fluorescent microscopy); type: in vivo
Procedure: About 100 μL of the topically active trypsin composition of Example 2 was applied to the dorsal side of each Rhino mouse of Example 1. The trypsin used in this composition was fluorescently-labeled with a protein fluorescent labeling kit available from Molecular Probes, Inc. in accordance with its accompanying protocol (1996). At one and four hours after the application of the fluorescent trypsin treatment, a 1 cm by 2 cm sample of the skin surface of each mouse was isolated from each mouse with scissors, fixed with a 10% buffered formalin solution having a pH of about 6.9-7.1 at 25° C. available from Stephens Scientific, then formed into a paraffin block according to well-known procedures, and examined with fluorescent microscopy according to well-known methods.
This Example was repeated on similar Rhino mice of Example 1, with the exception that these mice were treated daily for 5 days with the 1% (w/v) trypsin composition of Example 2 prior to the fluorescent trypsin treatment. Four hours after the application of the fluorescent trypsin treatment on the fifth day, the skins of these mice were analyzed using similar fluorescent microscopic methods. […] This loss of barrier integrity is reflected in the values for transepidermal water loss (“TEWL”) as described in Example 4 and Table 1 herein.

[4] = system: follicular epithelium of Rhino mouse skin; experiment: TUNEL stain of skin for apoptotic bodies; type: in vivo; details: 0.1% (w/v) trypsin daily for five days, sacrificed at day eight
Procedure: Rhino mice of Example 1 were treated daily with a 0.1% (w/v) trypsin composition of Example 2 for five days and sacrificed at day eight.
1 cm by 2 cm samples of the skins of untreated, vehicle treated, and trypsin treated mice were obtained via the procedure set forth in Example 3 then analyzed using a TdT-mediated dUTP-biotin nick end labeling (“TUNEL”) stain procedure as disclosed in Gavrieli et al., “Identification of Programmed Cell Death in situ Via Specific Labeling of Nuclear DNA Fragmentation”, 119 Jl. Cell Biology 493-501 (1992) (“Gavrieli”). During this procedure, the prepared skin sections were stained using an “ApopTag™ Plus In Situ Apoptosis Detection Kit” available from Oncor, Inc. as specified in the “ApopTag™ Plus In Situ Apoptosis Detection Kit” protocol by Oncor, Inc. (Feb. 1995), which is based upon the labeling of fragmented DNA ends as described in Gavrieli. FIGS. 5(a-d) show a histological analysis wherein the stain has a peroxidase end point (brown) and a methyl green counter-stain. The resulting representations of this are provided in FIGS. 5(a&b) which are vehicle treated and FIGS. 5(c&d) which are trypsin treated.

Rhino mouse skin [5] = experiment: Visual irritation (scaling and erythema); type: in vivo; details: up to 1% (w/v) trypsin; not dose dependent

B1: trypsin (protein, UniProt P00760 24-246, looked up)
Serine protease 1: IVGGYTCGANTVPYQVSLNSGYHFCGGSLINSQWVVSAAHCYKSGIQVRLGEDNINVVEGNEQFISASKSIVHPSYNSNTLNNDIMLIKLKSAASLNSRVASISLPTSCASAGTQCLISGWGNTKSSGTSYPDVLKCLKAPILSDSSCKSAYPGQITSNMFCAGYLEGGKDSCQGDSGGPVVCSGKLQGIVSWGSGCAQKNKPGVYTKVCNYVSWIKQTIASN
notes: lyophilyzed trypsin from Sigma-Aldrich, a serine protease, in Hepes buffer mixed with GDL liposomes
[1]; Trypsin 0.001% (w/v) in GDL liposomes
  Utriculus Size Reduction (%) vs. Liposome Control: 26.85 ± 4.38%
[1]; Trypsin 0.005% (w/v) in GDL liposomes
  Utriculus Size Reduction (%) vs. Liposome Control: 19.58 ± 3.06%
[1]; Trypsin 0.01% (w/v) in GDL liposomes
  Utriculus Size Reduction (%) vs. Liposome Control: 33.08 ± 2.15%
[1]; Trypsin 0.05% (w/v) in GDL liposomes
  Utriculus Size Reduction (%) vs. Liposome Control: 43.84 ± 0.62%
[1]; Trypsin 0.1% (w/v) in GDL liposomes
  Utriculus Size Reduction (%) vs. Liposome Control: 50.67 ± 0.83%
[1]; Trypsin 0.5% (w/v) in GDL liposomes
  Utriculus Size Reduction (%) vs. Liposome Control: 54.31 ± 1.33%
[1]; Trypsin 1.0% (w/v) in GDL liposomes
  Utriculus Size Reduction (%) vs. Liposome Control: 54.85 ± 1.02%
[1]; further increase in trypsin concentration above ~0.1% (w/v)
  maximal reduction of utriculus size relative to liposomal control: ≤ 55%
[1]; once daily for five days
  trypsin concentration at which reduction in utriculus size reached a plateau: ~0.1 % (w/v)
[2]; Trypsin 0.5% (w/v), 10 μl daily on ventral right ear, five days a week for three weeks
  Sebaceous Gland Size: 95043.0 ± 4269.1 μ^2
[2]; Trypsin 0.5% (w/v), vs. liposome vehicle
  Percent Size Decrease (%) of sebaceous gland: −0.36 (vs. liposome %
[2]; hamster ear, daily, five days a week for three weeks
  effect on the size of the sebaceous gland: no effect
Rhino mouse skin [3]; 1 hour and 4 hours after topical application of about 100 μL fluorescent trypsin composition
  location of fluorescent labeling in skin: almost all of the fluorescent labeling was found within the utriculi and sebaceous glands
Rhino mouse skin [3]; 4 hours after fluorescent trypsin, following 5 days of daily 1% (w/v) trypsin
  change in delivery route into utriculi and sebaceous glands: no major change
Rhino mouse skin [3]; following 5 days of daily 1% (w/v) trypsin
  barrier integrity (staining at outer portion of stratum corneum): some loss of barrier integrity
[4]
  apoptotic bodies within the follicular epithelium (TUNEL): elimination of all the apoptotic bodies
Rhino mouse skin [5]
  visual irritation (scaling and erythema): minor scaling and erythema
